Experiments:
Assay in all cases: IEDB peptide-MHC binding, purified MHC/competitive/radioactivity; ≥ and ≤ were set here for values at or beyond the usual limits of such assays
Conditions in all cases: source organism: Hepatitis delta virus
HLA-A*02:05 = target: HLA-A*02:05
HLA-B*35:01 = target: HLA-B*35:01
HLA-B*52:01 = target: HLA-B*52:01
HLA-B*07:02 = target: HLA-B*07:02
HLA-B*18:01 = target: HLA-B*18:01
HLA-B*44:03 = target: HLA-B*44:03
HLA-B*44:02 = target: HLA-B*44:02
HLA-B*58:01 = target: HLA-B*58:01
HLA-B*27:05 = target: HLA-B*27:05

Row | Sequence | IC50 (HLA-A*02:05) [µM] | IC50 (HLA-B*35:01) [µM] | IC50 (HLA-B*52:01) [µM] | IC50 (HLA-B*07:02) [µM] | also measured
1 | DRGFPWDILF | ≥ 50 | ≥ 50 | 4.68 | ≥ 50 | 
2 | EENLWLGNI |  |  |  |  | IC50 (HLA-B*18:01): 1.99 µM; IC50 (HLA-B*44:03): 0.217 µM; IC50 (HLA-B*44:02): 0.468 µM
3 | SQGFPWDILF | 3.12 | ≥ 50 | 3.66 | ≥ 50 | 
4 | FPWDILFPA | 9.37 | 0.0057 |  | 0.096 | 
5 | TGRQGFPW |  |  |  |  | IC50 (HLA-B*58:01): 1.55 µM
6 | DDNPWLGNI |  |  |  |  | IC50 (HLA-B*18:01): ≥ 50 µM; IC50 (HLA-B*44:03): 9.19 µM; IC50 (HLA-B*44:02): 35.1 µM
7 | QGFPWDLLF | 3.41 | 0.213 | 0.135 | ≥ 50 | 
8 | FPWDILFPS | 11.7 | 0.027 |  | 13.5 | 
9 | FPWDMLFPA | 5.74 | 0.0017 |  | 0.43 | 
10 | NQGIPWDILF | 7.17 | ≥ 50 | 1.47 | ≥ 50 | 
11 | QGFPWDILF | 9.63 | 0.118 | 0.018 | 44.3 | 
12 | RRKALENKS |  |  |  |  | IC50 (HLA-B*27:05): 13.6 µM
13 | RGDREFPW |  |  |  |  | IC50 (HLA-B*58:01): 0.195 µM
14 | RRKALENKR |  |  |  |  | IC50 (HLA-B*27:05): 0.109 µM
15 | RGSQGFPW |  |  |  |  | IC50 (HLA-B*58:01): 0.014 µM
16 | FPWDLLFPA | 4.16 | 0.018 |  | 0.467 | 

Source: the Immune Epitope Database (IEDB)
